Data taken from patent US20110236325A1, “METHODS TO TREAT OR PREVENT A SKIN CONDITION USING A NELL1 PEPTIDE” (NellOne Therapeutics, Inc., priority 2010, published 2011).

What was measured:
[1] = tested on: EFT-400 tissues; assay: Sunburned cell counts in UV-irradiated EpiDerm-FT (EFT-400) skin model tissues, H&E histology; format: cell-based, human; settings: for sunburned cell formation: 200 mJ/cm2 UVB/29.94 mW/cm2 UVA, 24 hour post irradiation
Protocol: Packaged tissues were stored at 4° C. overnight and then re-equilibrated in EFT-400-ASY medium overnight prior to the start of experiments. The sample size was n=3 for each treatment group in the gene expression experiments; and n=6 (two independent experiments of n=3) for the sunburned cell counts.
Treated and untreated tissues were exposed to UV irradiation with 200 mJ/cm^2UVB/29.94 mW/cm^2UVA simulated solar UV light (Honle-500 solar lamp).
At the conclusion of the 24 hour post-irradiation period, EFT-400 tissues were fixed in 10% formalin for 2 hours at room temperature (two independent experiments with n=3). Formalin fixed tissues were embedded in paraffin and 6 micron slices were stained with haematoxylin and eosin (H&E).

[2] = tested on: EFT-400 tissues; assay: Gene expression by quantitative PCR custom array in EFT-400 tissues with or without UV irradiation; settings: for AVG Ct ACTB (housekeeping gene) / AVG Ct AQP3 / AVG Ct BCL2L1 / AVG Ct COL1A1 / AVG Ct COL4A2 / AVG Ct COL5A1 / AVG Ct COL6A1 / AVG Ct COL6A2 / AVG Ct COL7A1 / AVG Ct COL8A1 / AVG Ct COL11A1 / AVG Ct COL12A1 / AVG Ct COL14A1 / AVG Ct COL15A1 / AVG Ct COL16A1 / AVG Ct DSG1 / AVG Ct ERCC1 / AVG Ct FN1 / AVG Ct GAPDH (housekeeping gene) / AVG Ct GDF15 / AVG Ct GSTM3 / AVG Ct HSPA8 / AVG Ct IL1A / AVG Ct IL1B / AVG Ct IL8 / AVG Ct KAL1 / AVG Ct KRT16 / AVG Ct LAMA1 / AVG Ct LAMA2 / AVG Ct LAMA3 / AVG Ct LAMA5 / AVG Ct LAMB1 / AVG Ct LAMB3 / AVG Ct LAMC1 / AVG Ct MMP1 / AVG Ct MMP2 / AVG Ct MT2A / AVG Ct PCNA / AVG Ct RPL13A (housekeeping gene) / AVG Ct SIRT1 / AVG Ct TGFBI / AVG Ct THBS3 / AVG Ct TNC / AVG Ct VTN: No UV
Protocol: EpiDerm-FT™ (EFT-400) tissues were produced and packaged in the MatTek Corporation GMP tissue culture production laboratories following standard procedures. Packaged tissues were stored at 4° C. overnight and then re-equilibrated in EFT-400-ASY medium overnight prior to the start of experiments. The sample size was n=3 for each treatment group in the gene expression experiments; and n=6 (two independent experiments of n=3) for the sunburned cell counts.
Total RNA was isolated from the EFT-400 tissues (RNAqueous kit, Ambion) (n=3) and utilized for gene expression analysis by quantitative PCR on an SABioscience custom array containing 42 Human Extracellular Matrix (ECM) and Adhesion Molecules RT^2 Profiler™ PCR Array, stress and toxicity genes whose expression, based on MatTek data, are known to be dramatically altered by UV-protective compounds on UV damaged skin. […] Further, there were three internal control spots on the array that corresponded to human genomic DNA contamination (HGDC), positive PCR control (PPC), and reverse transcription control (RTC).

B1: Nell 1: Full-length human recombinant NELL1 protein (isoform 1, SEQ ID NO: 2), expressed in a wheat germ cell-free translation system, obtained from Abnova (protein, listed as Homo sapiens)
chain: MPMDLILVVWFCVCTARTVVGFGMDPDLQMDIVTELDLVNTTLGVAQVSGMHNASKAFLFQDIEREIHAAPHVSEKLIQLFRNKSEFTILATVQQKPSTSGVILSIRELEHSYFELESSGLRDEIRYHYIHNGKPRTEALPYRMADGQWHKVALSVSASHLLLHVDCNRIYERVIDPPDTNLPPGINLWLGQRNQKHGLFKGIIQDGKIIFMPNGYITQCPNLNHTCPTCSDFLSLVQGIMDLQELLAKMTAKLNYAETRLSQLENCHCEKTCQVSGLLYRDQDSWVDGDHCRNCTCKSGAVECRRMSCPPLNCSPDSLPVHIAGQCCKVCRPKCIYGGKVLAEGQRILTKSCRECRGGVLVKITEMCPPLNCSEKDHILPENQCCRVCRGHNFCAEGPKCGENSECKNWNTKATCECKSGYISVQGDSAYCEDIDECAAKMHYCHANTVCVNLPGLYRCDCVPGYIRVDDFSCTEHDECGSGQHNCDENAICTNTVQGHSCTCKPGYVGNGTICRAFCEEGCRYGGTCVAPNKCVCPSGFTGSHCEKDIDECSEGIIECHNHSRCVNLPGWYHCECRSGFHDDGTYSLSGESCIDIDECALRTHTCWNDSACINLAGGFDCLCPSGPSCSGDCPHEGGLKHNGQVWTLKEDRCSVCSCKDGKIFCRRTACDCQNPSADLFCCPECDTRVTSQCLDQNGHKLYRSGDNWTHSCQQCRCLEGEVDCWPLTCPNLSCEYTAILEGECCPRCVSDPCLADNITYDIRKTCLDSYGVSRLSGSVWTMAGSPCTTCKCKNGRVCCSVDFECLQNN
sunburned cell formation ([1]; 100 ng/ml): decrease in sunburned cell formation | sunburned cell formation ([1]; 150 ng/ml): did not decrease sunburned cell formation to the same extent as 100 ng/ml NELL1 | number of sunburned cells as compared to UV-only controls ([1]; pre-treatment 30 minutes prior to UV, continued 24 hours post-irradiation): statistically significant reduction in the number of sunburned cells | activity in producing the observed effects (sunburned cells, gene expression) ([2]; NELL1 protein at 100 ng/ml, genistein at 50 μM): most active in producing the observed effects | AVG Ct ACTB (housekeeping gene) ([2]; 100 ng/ml Nell 1): 18 | AVG Ct AQP3 ([2]; 100 ng/ml Nell 1): 23.05 | AVG Ct BCL2L1 ([2]; 100 ng/ml Nell 1): 24.03 | AVG Ct COL1A1 ([2]; 100 ng/ml Nell 1): 17.82 | AVG Ct COL4A2 ([2]; 100 ng/ml Nell 1): 22.01 | AVG Ct COL5A1 ([2]; 100 ng/ml Nell 1): 22.36 | AVG Ct COL6A1 ([2]; 100 ng/ml Nell 1): 18.82 | AVG Ct COL6A2 ([2]; 100 ng/ml Nell 1): 19.33 | AVG Ct COL7A1 ([2]; 100 ng/ml Nell 1): 25.75 | AVG Ct COL8A1 ([2]; 100 ng/ml Nell 1): 27.28 | AVG Ct COL11A1 ([2]; 100 ng/ml Nell 1): 26.77 | AVG Ct COL12A1 ([2]; 100 ng/ml Nell 1): 24.14 | AVG Ct COL14A1 ([2]; 100 ng/ml Nell 1): 25.88 | AVG Ct COL15A1 ([2]; 100 ng/ml Nell 1): 24.72 | AVG Ct COL16A1 ([2]; 100 ng/ml Nell 1): 23.78 | AVG Ct DSG1 ([2]; 100 ng/ml Nell 1): 20.11 | AVG Ct ERCC1 ([2]; 100 ng/ml Nell 1): 23.72 | AVG Ct FN1 ([2]; 100 ng/ml Nell 1): 20.04 | AVG Ct GAPDH (housekeeping gene) ([2]; 100 ng/ml Nell 1): 17.83 | AVG Ct GDF15 ([2]; 100 ng/ml Nell 1): 23.37 | AVG Ct GSTM3 ([2]; 100 ng/ml Nell 1): 29.11 | AVG Ct HSPA8 ([2]; 100 ng/ml Nell 1): 19.83 | AVG Ct IL1A ([2]; 100 ng/ml Nell 1): 25.17 | AVG Ct IL1B ([2]; 100 ng/ml Nell 1): 28.25 | AVG Ct IL8 ([2]; 100 ng/ml Nell 1): 20.41 | AVG Ct KAL1 ([2]; 100 ng/ml Nell 1): 31.6 | AVG Ct KRT16 ([2]; 100 ng/ml Nell 1): 16.15 | AVG Ct LAMA1 ([2]; 100 ng/ml Nell 1): 28.71 | AVG Ct LAMA2 ([2]; 100 ng/ml Nell 1): 24.38 | AVG Ct LAMA3 ([2]; 100 ng/ml Nell 1): 23.37 | AVG Ct LAMA5 ([2]; 100 ng/ml Nell 1): 26.73 | AVG Ct LAMB1 ([2]; 100 ng/ml Nell 1): 22.69 | AVG Ct LAMB3 ([2]; 100 ng/ml Nell 1): 24.73 | AVG Ct LAMC1 ([2]; 100 ng/ml Nell 1): 22.76 | AVG Ct MMP1 ([2]; 100 ng/ml Nell 1): 20.04 | AVG Ct MMP2 ([2]; 100 ng/ml Nell 1): 18.98 | AVG Ct MT2A ([2]; 100 ng/ml Nell 1): 18.43 | AVG Ct PCNA ([2]; 100 ng/ml Nell 1): 23.56 | AVG Ct RPL13A (housekeeping gene) ([2]; 100 ng/ml Nell 1): 20.37 | AVG Ct SIRT1 ([2]; 100 ng/ml Nell 1): 25.93 | AVG Ct TGFBI ([2]; 100 ng/ml Nell 1): 21.73 | AVG Ct THBS3 ([2]; 100 ng/ml Nell 1): 28.69 | AVG Ct TNC ([2]; 100 ng/ml Nell 1): 21.22 | AVG Ct VTN ([2]; 100 ng/ml Nell 1): 32.48 | AVG Ct ACTB (housekeeping gene) ([2]; 150 ng/ml Nell 1): 18.54 | AVG Ct AQP3 ([2]; 150 ng/ml Nell 1): 23.74 | AVG Ct BCL2L1 ([2]; 150 ng/ml Nell 1): 24.48 | AVG Ct COL1A1 ([2]; 150 ng/ml Nell 1): 18.8 | AVG Ct COL4A2 ([2]; 150 ng/ml Nell 1): 22.92 | AVG Ct COL5A1 ([2]; 150 ng/ml Nell 1): 23.36 | AVG Ct COL6A1 ([2]; 150 ng/ml Nell 1): 19.6 | AVG Ct COL6A2 ([2]; 150 ng/ml Nell 1): 20.05 | AVG Ct COL7A1 ([2]; 150 ng/ml Nell 1): 26.73 | AVG Ct COL8A1 ([2]; 150 ng/ml Nell 1): 28.22 | AVG Ct COL11A1 ([2]; 150 ng/ml Nell 1): 27.51 | AVG Ct COL12A1 ([2]; 150 ng/ml Nell 1): 25 | AVG Ct COL14A1 ([2]; 150 ng/ml Nell 1): 26.52 | AVG Ct COL15A1 ([2]; 150 ng/ml Nell 1): 25.35 | AVG Ct COL16A1 ([2]; 150 ng/ml Nell 1): 24.55 | AVG Ct DSG1 ([2]; 150 ng/ml Nell 1): 20.36 | AVG Ct ERCC1 ([2]; 150 ng/ml Nell 1): 24.07 | AVG Ct FN1 ([2]; 150 ng/ml Nell 1): 20.71 | AVG Ct GAPDH (housekeeping gene) ([2]; 150 ng/ml Nell 1): 18.02 | AVG Ct GDF15 ([2]; 150 ng/ml Nell 1): 23.97 | AVG Ct GSTM3 ([2]; 150 ng/ml Nell 1): 29.74 | AVG Ct HSPA8 ([2]; 150 ng/ml Nell 1): 20.36 | AVG Ct IL1A ([2]; 150 ng/ml Nell 1): 25.55 | AVG Ct IL1B ([2]; 150 ng/ml Nell 1): 29.2 | AVG Ct IL8 ([2]; 150 ng/ml Nell 1): 21.04 | AVG Ct KAL1 ([2]; 150 ng/ml Nell 1): 33.03 | AVG Ct KRT16 ([2]; 150 ng/ml Nell 1): 16.49 | AVG Ct LAMA1 ([2]; 150 ng/ml Nell 1): 29.76 | AVG Ct LAMA2 ([2]; 150 ng/ml Nell 1): 25.3 | AVG Ct LAMA3 ([2]; 150 ng/ml Nell 1): 24.15 | AVG Ct LAMA5 ([2]; 150 ng/ml Nell 1): 27.41 | AVG Ct LAMB1 ([2]; 150 ng/ml Nell 1): 23.44 | AVG Ct LAMB3 ([2]; 150 ng/ml Nell 1): 25.42 | AVG Ct LAMC1 ([2]; 150 ng/ml Nell 1): 23.62 | AVG Ct MMP1 ([2]; 150 ng/ml Nell 1): 20.75 | AVG Ct MMP2 ([2]; 150 ng/ml Nell 1): 19.62 | AVG Ct MT2A ([2]; 150 ng/ml Nell 1): 18.83 | AVG Ct PCNA ([2]; 150 ng/ml Nell 1): 24.11 | AVG Ct RPL13A (housekeeping gene) ([2]; 150 ng/ml Nell 1): 20.81 | AVG Ct SIRT1 ([2]; 150 ng/ml Nell 1): 26.67 | AVG Ct TGFBI ([2]; 150 ng/ml Nell 1): 22.16 | AVG Ct THBS3 ([2]; 150 ng/ml Nell 1): 29.23 | AVG Ct TNC ([2]; 150 ng/ml Nell 1): 22.04 | AVG Ct VTN ([2]; 150 ng/ml Nell 1): 32.57 | expression of IL-1β elevated after UV exposure ([2]; UV-irradiated): decrease in the expression | expression of IL-8 elevated after UV exposure ([2]; UV-irradiated): decrease in the expression | expression of MMP-1 elevated after UV exposure ([2]; UV-irradiated): decrease in the expression | levels of AQP3 RNA after UV exposure ([2]; UV-irradiated): increased these levels further | UV-elevated levels of AQP3 ([2]; UV-irradiated, 100 ng/ml): further increased the UV-elevated levels of AQP3
